Measurements from paper PMC11665464.

What was measured:
[1] = target: ALYREF-ΔNC, with the N- and C-terminal UAP56-binding motifs (UBMs) deleted (human) (UniProt Q86V81); experiment: pull-down; Nickel-NTA affinity pull-down: 2 ug His6-tagged ALYREF or variant with 4 ug UAP56 in 30 ul K buffer (20 mM KH2PO4 pH 7.4, 10% glycerol, 0.5 mM EDTA, 0.01% Igepal, 1 mM DTT) with 200 mM KCl and 15 mM imidazole, 30 min at 4 °C; captured on Ni-NTA resin, eluted with 2% SDS; SDS-PAGE, Coomassie stain
[2] = target: ALYREF-ΔNC, with the N- and C-terminal UAP56-binding motifs (UBMs) deleted (human) (UniProt Q86V81)

Sequence of UAP56 (Q13838 whole entry): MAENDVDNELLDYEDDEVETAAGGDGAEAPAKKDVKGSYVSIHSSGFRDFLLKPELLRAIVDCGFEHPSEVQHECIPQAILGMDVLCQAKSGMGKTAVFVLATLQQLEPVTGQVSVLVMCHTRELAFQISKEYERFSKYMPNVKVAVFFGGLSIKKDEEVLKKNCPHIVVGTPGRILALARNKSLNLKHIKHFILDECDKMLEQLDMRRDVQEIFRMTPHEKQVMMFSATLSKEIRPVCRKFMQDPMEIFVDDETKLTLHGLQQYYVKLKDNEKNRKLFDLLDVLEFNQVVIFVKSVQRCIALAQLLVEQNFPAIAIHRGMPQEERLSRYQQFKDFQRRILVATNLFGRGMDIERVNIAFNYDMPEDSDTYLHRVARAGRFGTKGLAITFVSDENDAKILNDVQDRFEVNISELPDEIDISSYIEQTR

percent of the ability to interact with UAP56 lost, against WT ALYREF [1]: 80%
time course (5, 10, 15 min) of R-loop dissociation by 60 nM UAP56 with 6 nM ALYREF-ΔNC; fold increase at 5 min [2]: 12 fold
Substance: UAP56 (from UniProt Q13838 1-428) (enzyme)
